In the supplement of paper PMC9233669 one finds self-aminoacylation data, which are given here for 21 sequences.

Fewer inactive variants are shown than the library holds.

One data set concerns biotinyl-Ile-oxazolone. The data set is described as follows: self-aminoacylation, catalytic enhancement (BIO) (fold over background); higher = more active; k-Seq, kA / k0A0; sequences stand for … in GGGAAUGGAUCCACAUCUACGAAUUC…UUCACUGCAGACUUGACGAAGCUG
The method, boiled down:
(§1)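 Mutagenized RNA pools (0.43 μM; 21-nt variable region) were treated with 2–1250 μM of each biotinyl-aminoacyl-oxazolone. Conditions were 50 μL HEPES/NaCl/KCl/MgCl2/CaCl2 buffer, 5% acetonitrile, pH 6.9–7.0, room temperature, 90 minutes. Catalytic enhancement, the median kA relative to the uncatalyzed rate, was derived from streptavidin capture, qPCR and Illumina sequencing.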

A further data set deals with biotinyl-Met-oxazolone. In words: self-aminoacylation, catalytic enhancement (BMO) (fold over background); higher = more active; k-Seq, kA / k0A0; sequences stand for … in GGGAAUGGAUCCACAUCUACGAAUUC…UUCACUGCAGACUUGACGAAGCUG
The method, boiled down: as §1

A further data set deals with biotinyl-Val-oxazolone. The data set is described as follows: self-aminoacylation, catalytic enhancement (BVO) (fold over background); higher = more active; k-Seq, kA / k0A0; sequences stand for … in GGGAAUGGAUCCACAUCUACGAAUUC…UUCACUGCAGACUUGACGAAGCUG
The method in brief: as §1

For the next data set, the system named is biotinyl-Trp-oxazolone. The data set is described as follows: self-aminoacylation, catalytic enhancement (BWO) (fold over background); higher = more active; k-Seq, kA / k0A0; sequences stand for … in GGGAAUGGAUCCACAUCUACGAAUUC…UUCACUGCAGACUUGACGAAGCUG
The method, boiled down:
as §1

In another data set the test system is biotinyl-Phe-oxazolone. In words: self-aminoacylation, catalytic enhancement (BFO) (fold over background); higher = more active; k-Seq, kA / k0A0; sequences stand for … in GGGAAUGGAUCCACAUCUACGAAUUC…UUCACUGCAGACUUGACGAAGCUG
The method in brief:
as §1

The test system of a further data set is biotinyl-Leu-oxazolone. In words: self-aminoacylation, catalytic enhancement (BLO) (fold over background); higher = more active; k-Seq, kA / k0A0; sequences stand for … in GGGAAUGGAUCCACAUCUACGAAUUC…UUCACUGCAGACUUGACGAAGCUG
The method in brief: as §1

In the case of “AAGUUUGCUAGUAGUAGCAAG [Fam3.1 aminoacylation ribozyme variant]”, the self-aminoacylation in the data set on biotinyl-Ile-oxazolone was 1.24; in the data set with biotinyl-Met-oxazolone, 0.808; with biotinyl-Val-oxazolone, 1.18; in the data set on biotinyl-Trp-oxazolone, 1.2; in the data set with biotinyl-Phe-oxazolone, 1.62; in the data set with biotinyl-Leu-oxazolone it was 1.
In the case of “AAAUUUGCGAAUAGUCGCAAG [Fam3.1 aminoacylation ribozyme variant]”, the self-aminoacylation amounted to 1.71 in the data set on biotinyl-Ile-oxazolone; 1.59 with biotinyl-Met-oxazolone; 1.56 with biotinyl-Val-oxazolone; 1.54 in the data set with biotinyl-Trp-oxazolone; 1.99 in the data set on biotinyl-Phe-oxazolone; 1.33 in the data set with biotinyl-Leu-oxazolone.
Regarding “CCGCACUUCGAGCAAUCGGUC [Fam1B.1 aminoacylation ribozyme variant]”, the self-aminoacylation stood at 1.22 with biotinyl-Ile-oxazolone; 1.46 in the data set on biotinyl-Met-oxazolone; 2.27 with biotinyl-Val-oxazolone; 2.26 with biotinyl-Trp-oxazolone; 5.29 in the data set on biotinyl-Phe-oxazolone; 1.46 in the data set on biotinyl-Leu-oxazolone.
With “AACUUUUCUAAUAGUCGCAAG [Fam3.1 aminoacylation ribozyme variant]”, the self-aminoacylation came out at 1.97 in the data set on biotinyl-Ile-oxazolone; 2.11 in the data set with biotinyl-Met-oxazolone; 1.71 with biotinyl-Val-oxazolone; 2.05 with biotinyl-Trp-oxazolone; 3.55 in the data set on biotinyl-Phe-oxazolone; 2.33 in the data set with biotinyl-Leu-oxazolone.
On to “CGACAUCAAACAAUCGGUCUG [Fam1A.1 aminoacylation ribozyme variant]”, for which the self-aminoacylation in the data set on biotinyl-Ile-oxazolone came to 1.11; in the data set with biotinyl-Met-oxazolone it was 1.05; in the data set on biotinyl-Val-oxazolone it was 1.19; in the data set on biotinyl-Trp-oxazolone, 2.71; in the data set on biotinyl-Phe-oxazolone, 3.7; in the data set with biotinyl-Leu-oxazolone it was 0.934.
In the case of “CCACACAUCAAGCAAUCGGAC [Fam1B.1 aminoacylation ribozyme variant]”, the self-aminoacylation in the data set on biotinyl-Ile-oxazolone came to 0.897; in the data set with biotinyl-Met-oxazolone, 0.748; in the data set with biotinyl-Val-oxazolone, 1.03; in the data set on biotinyl-Trp-oxazolone, 0.906; in the data set with biotinyl-Phe-oxazolone, 0.446; in the data set with biotinyl-Leu-oxazolone it was 0.808.
Turning to “AAGUUUACUAAUAUUCGCAAG [Fam3.1 aminoacylation ribozyme variant]”, the self-aminoacylation with biotinyl-Ile-oxazolone turned out to be 1.67; in the data set on biotinyl-Met-oxazolone it was 1.31; in the data set on biotinyl-Val-oxazolone, 1.66; in the data set with biotinyl-Trp-oxazolone, 2.23; in the data set on biotinyl-Phe-oxazolone, 2.42; in the data set with biotinyl-Leu-oxazolone, 1.44.
With “AAGUUGGCUAAUAGUCGCAAC [Fam3.1 aminoacylation ribozyme variant]”, the self-aminoacylation was 1.75 with biotinyl-Ile-oxazolone; 1.31 with biotinyl-Met-oxazolone; 1.4 in the data set on biotinyl-Val-oxazolone; 1.93 in the data set with biotinyl-Trp-oxazolone; 2.17 in the data set on biotinyl-Phe-oxazolone; 1.42 with biotinyl-Leu-oxazolone.
As for “CAAUACUUCAAGCAAUCGGUC [Fam1B.1 aminoacylation ribozyme variant]”, the self-aminoacylation came to 0.907 in the data set with biotinyl-Ile-oxazolone; 0.799 with biotinyl-Met-oxazolone; 0.912 with biotinyl-Val-oxazolone; 5.14 with biotinyl-Trp-oxazolone; 9.23 in the data set on biotinyl-Phe-oxazolone; 0.986 in the data set with biotinyl-Leu-oxazolone.
“AUUCACCAAGUUCAUCGGGUG [Fam2.2 aminoacylation ribozyme variant]”: the self-aminoacylation came to 3.06 with biotinyl-Ile-oxazolone; 3.58 in the data set with biotinyl-Met-oxazolone; 2.89 with biotinyl-Val-oxazolone; 4.14 in the data set on biotinyl-Trp-oxazolone; 19.8 with biotinyl-Phe-oxazolone; 4.31 in the data set with biotinyl-Leu-oxazolone.
In the case of “CUAUUUAAAACAAUCGGUCUG [Fam1A.1 aminoacylation ribozyme variant]”, the self-aminoacylation in the data set on biotinyl-Ile-oxazolone came out at 0.834; in the data set on biotinyl-Met-oxazolone, 0.927; in the data set with biotinyl-Val-oxazolone it was 0.841; in the data set with biotinyl-Trp-oxazolone, 0.616; in the data set on biotinyl-Phe-oxazolone, 0.598; with biotinyl-Leu-oxazolone it was 0.774.
As to “AUUACCCUGGUCAUCGGGUCA [Fam2.1 aminoacylation ribozyme variant]”, the self-aminoacylation in the data set with biotinyl-Ile-oxazolone is 3.61; in the data set on biotinyl-Met-oxazolone, 5.33; with biotinyl-Val-oxazolone, 4.01; with biotinyl-Trp-oxazolone, 9.71; in the data set with biotinyl-Phe-oxazolone it was 22.5; in the data set with biotinyl-Leu-oxazolone, 6.66.
“CCACACUUUAAGCAUUCGGUC [Fam1B.1 aminoacylation ribozyme variant]”: the self-aminoacylation worked out at 1.39 in the data set with biotinyl-Ile-oxazolone; 1.01 with biotinyl-Met-oxazolone; 1.3 with biotinyl-Val-oxazolone; 1.36 with biotinyl-Trp-oxazolone; 1.05 in the data set with biotinyl-Phe-oxazolone; 1.21 with biotinyl-Leu-oxazolone.
Consider “UCACACUUCAAGCUAUCGGUC [Fam1B.1 aminoacylation ribozyme variant]”, for which the self-aminoacylation in the data set on biotinyl-Ile-oxazolone was 0.939; with biotinyl-Met-oxazolone it was 0.703; in the data set on biotinyl-Val-oxazolone, 1.02; with biotinyl-Trp-oxazolone, 0.724; in the data set with biotinyl-Phe-oxazolone, 1.11; in the data set on biotinyl-Leu-oxazolone, 0.749.
On to “CCACACUUCAAACAUUCGGUC [Fam1B.1 aminoacylation ribozyme variant]”, for which the self-aminoacylation in the data set on biotinyl-Ile-oxazolone is 1.49; in the data set on biotinyl-Met-oxazolone, 1.47; with biotinyl-Val-oxazolone it was 1.4; in the data set with biotinyl-Trp-oxazolone it was 1.32; in the data set with biotinyl-Phe-oxazolone, 0.837; in the data set with biotinyl-Leu-oxazolone, 1.45.
Regarding “CCACACUUCAAUCAAUCGGUG [Fam1B.1 aminoacylation ribozyme variant]”, the self-aminoacylation was 2.23 with biotinyl-Ile-oxazolone; 2.66 with biotinyl-Met-oxazolone; 1.98 with biotinyl-Val-oxazolone; 2.57 in the data set on biotinyl-Trp-oxazolone; 2.64 with biotinyl-Phe-oxazolone; 3.6 with biotinyl-Leu-oxazolone.
Turning to “CCACACUUCGAUCAAUCGGUC [Fam1B.1 aminoacylation ribozyme variant]”, the self-aminoacylation is 0.826 in the data set on biotinyl-Ile-oxazolone; 0.767 in the data set on biotinyl-Met-oxazolone; 0.871 with biotinyl-Val-oxazolone; 0.903 with biotinyl-Trp-oxazolone; 0.966 in the data set with biotinyl-Phe-oxazolone; 0.777 with biotinyl-Leu-oxazolone.
Take “CCACACUUCAAGCCGUCGGUC [Fam1B.1 aminoacylation ribozyme variant]”: the self-aminoacylation in the data set with biotinyl-Ile-oxazolone is 1.41; with biotinyl-Met-oxazolone, 1.47; in the data set with biotinyl-Val-oxazolone, 1.49; with biotinyl-Trp-oxazolone, 1; in the data set with biotinyl-Phe-oxazolone it was 0.678; in the data set with biotinyl-Leu-oxazolone it was 1.57.
On to “AAGUUUACUAAUAGUCGCAAU [Fam3.1 aminoacylation ribozyme variant]”, for which the self-aminoacylation in the data set on biotinyl-Ile-oxazolone came out at 1.86; in the data set with biotinyl-Met-oxazolone it was 1.48; in the data set on biotinyl-Val-oxazolone it was 1.6; with biotinyl-Trp-oxazolone, 1.99; with biotinyl-Phe-oxazolone, 3.51; in the data set on biotinyl-Leu-oxazolone, 1.42.
Turning to “AUUCACCUAGGUCAUGGAGUG [Fam2.2 aminoacylation ribozyme variant]”, the self-aminoacylation with biotinyl-Ile-oxazolone was 2.31; in the data set with biotinyl-Met-oxazolone, 3.29; in the data set with biotinyl-Val-oxazolone it was 2.49; in the data set on biotinyl-Trp-oxazolone, 3.68; in the data set on biotinyl-Phe-oxazolone, 7.91; in the data set on biotinyl-Leu-oxazolone, 4.09.
For the sequence “AAGAUUGCUAAUAGUCGCAUG [Fam3.1 aminoacylation ribozyme variant]”, the self-aminoacylation in the data set with biotinyl-Ile-oxazolone stood at 1.68; with biotinyl-Met-oxazolone, 1.45; in the data set on biotinyl-Val-oxazolone it was 1.39; in the data set on biotinyl-Trp-oxazolone, 1.46; in the data set on biotinyl-Phe-oxazolone, 1.36; with biotinyl-Leu-oxazolone it was 1.91.
